Common to all, as to experiment: intrinsic fluorescence quenching
The test system of series [1] is All4779 (Anabaena sp. PCC7120). The following applies: Fluorescence: 20 mM Tris-HCl pH 8, 1 mM EDTA, 20 or 100 mM NaCl, room temperature, EMSA: 20 mM Tris-HCl pH 8, 1 mM MgCl2, 100 mM KCl, 8 mM DTT, 4% sucrose …. (In general: Mobility shift assays separate free from complexed probe on a gel.)
For series [2], the system named is EcoSSB (Escherichia coli). The following applies: 20 mM NaCl; Fluorescence: 20 mM Tris-HCl pH 8, 1 mM EDTA, 20 or 100 mM NaCl, room temperature; EMSA: 20 mM Tris-HCl pH 8, 1 mM MgCl2, 100 mM KCl, 8 mM DTT, 4% sucrose ….
The test system of series [3] is Alr0088 (Anabaena sp. PCC7120). The following applies: Fluorescence: 20 mM Tris-HCl pH 8, 1 mM EDTA, 20 or 100 mM NaCl, room temperature, EMSA: 20 mM Tris-HCl pH 8, 1 mM MgCl2, 100 mM KCl, 8 mM DTT, 4% sucrose ….
Where [4] appears, read: 20 mM NaCl, reciprocal of poly(dT) concentration at 50% fluorescence.

poly(dT): the Ka was 5.13e+07 M⁻¹ in series [1] (setting [4]), 6.76e+07 M⁻¹ in series [2] and 2.56e+06 M⁻¹ in series [3] (setting [4]).
For the substance M13 ssDNA, the binding signal in series [1] (high NaCl) turned out to be 18 % quenching; in series [3] (high NaCl), 40 % quenching.

(Values after article PMC3976300.)
